Test results from patent US20210371516A1.
Changes are numbered by the printed parent chain.

B1: PTA-2357 VH4/VK2 IgG1 antibody (antibody, V domains shown)
VH: QVQLVQSGAEVKKPGASVKVSCKGSGYPFTDYTIHWVRQAPGQGLEWIGHISTYSGNTNNNQKFKGRATMTVDKSTSTAYMELRSLRSDDTAVYYCARGDYYGSFYKFEYWGQGTTVTVSS
VL: DIKMTQSPSSLSASVGDRVTITCGASENIYGALNWFQRKPGKAPKLLIYGATNLADGMPSRFSGSGSGRDFTLTISSLQPEDFATYFCQNVLSIPYTFGQGTKLEIK
B2: PTA-2357 VH5/VK3 IgG1 antibody (antibody, V domains shown)
VH: B1 VH with A68V
VL: B1 VL with K3Q
B3: PTA-2357 VH3/VK3 IgG1 antibody (antibody, V domains shown)
VH: B1 VH with A92T
VL: B1 VL with K3Q
B4: PTA-2357 VH2/VK2 IgG1 antibody (antibody, V domains shown)
VH: B1 VH with P41H, T91S, A92T
VL: B1 VL
B5: PTA-2357 VH5/VK1 IgG1 antibody (antibody, V domains shown)
VH: B1 VH with A68V
VL: B1 VL with P40Q, K103Q
B6: PTA-2357 VH3/VK1 IgG1 antibody (antibody, V domains shown)
VH: B1 VH with A92T
VL: B1 VL with P40Q, K103Q
B7: PTA-2357 VH1/VK1 IgG1 antibody (antibody, V domains shown)
VH: B1 VH with A9P, V11L, P41H, T91S, A92T
VL: B1 VL with P40Q, K103Q
B8: PTA-2357 VH4/VK1 IgG1 antibody (antibody, V domains shown)
VH: B1 VH
VL: B1 VL with P40Q, K103Q
B9: PTA-2357 VH1/VK2 IgG1 antibody (antibody, V domains shown)
VH: B1 VH with A9P, V11L, P41H, T91S, A92T
VL: B1 VL
B10: PTA-2357 VH1/VK3 IgG1 antibody (antibody, V domains shown)
VH: B1 VH with A9P, V11L, P41H, T91S, A92T
VL: B1 VL with K3Q
B11: PTA-2357 VH2/VK1 IgG1 antibody (antibody, V domains shown)
VH: B1 VH with P41H, T91S, A92T
VL: B1 VL with P40Q, K103Q
B12: PTA-2357 VH5/VK2 IgG1 antibody (antibody, V domains shown)
VH: B1 VH with A68V
VL: B1 VL
B13: PTA-2357 VH3/VK2 IgG1 antibody (antibody, V domains shown)
VH: B1 VH with A92T
VL: B1 VL
B14: PTA-2357 VH2/VK3 IgG1 antibody (antibody, V domains shown)
VH: B1 VH with P41H, T91S, A92T
VL: B1 VL with K3Q
B15: PTA-2357 VH4/VK3 IgG1 antibody (antibody, V domains shown)
VH: B1 VH
VL: B1 VL with K3Q
B16: PTA-2358 VH1/VK1 IgG1 antibody (antibody, V domains shown)
VH: EVQLVQSGAELKKPGASVKLSCTASGFNIKDYYMHWVKQAPGQGLEWIGWIDPGNGDTECAPKFQGRATLTADTSINTAYLELSRLRSDDTAVYYCNAPYYSGSSHFDYWGQGTTVTVSS
VL: DIVLTQSPDSLAVSLGERATINCRASKSVSASGYSFLHWYQQKPGQPPKLLIYLASNLESGVPDRFSGSGSGTDFTLTISSLQEEDVATYYCQHSRELRTFGQGTKLEIK
B17: PTA-2358 VH5/VK2 IgG1 antibody (antibody, V domains shown)
VH: B16 VH with L11V, L20V, K38R, L70I, N77S, L81M
VL: B16 VL with E84A
B18: PTA-2358 VH4/VK1 IgG1 antibody (antibody, V domains shown)
VH: B16 VH with L11V, K38R, N77S
VL: B16 VL
B19: PTA-2358 VH3/VK1 IgG1 antibody (antibody, V domains shown)
VH: B16 VH with L11V, K38R
VL: B16 VL
B20: PTA-2358 VH5/VK1 IgG1 antibody (antibody, V domains shown)
VH: B16 VH with L11V, L20V, K38R, L70I, N77S, L81M
VL: B16 VL
B21: PTA-2358 VH4/VK2 IgG1 antibody (antibody, V domains shown)
VH: B16 VH with L11V, K38R, N77S
VL: B16 VL with E84A
B22: PTA-2358 VH2/VK2 IgG1 antibody (antibody, V domains shown)
VH: B16 VH with L11V
VL: B16 VL with E84A
B23: PTA-2358 VH2/VK1 IgG1 antibody (antibody, V domains shown)
VH: B16 VH with L11V
VL: B16 VL
B24: PTA-2358 VH1/VK3 IgG1 antibody (antibody, V domains shown)
VH: B16 VH
VL: B16 VL with L4M, E84A, T89V
B25: PTA-2358 VH1/VK2 IgG1 antibody (antibody, V domains shown)
VH: B16 VH
VL: B16 VL with E84A
B26: PTA-2358 VH4/VK3 IgG1 antibody (antibody, V domains shown)
VH: B16 VH with L11V, K38R, N77S
VL: B16 VL with L4M, E84A, T89V
B27: PTA-2358 VH3/VK3 IgG1 antibody (antibody, V domains shown)
VH: B16 VH with L11V, K38R
VL: B16 VL with L4M, E84A, T89V
B28: PTA-2358 VH3/VK2 IgG1 antibody (antibody, V domains shown)
VH: B16 VH with L11V, K38R
VL: B16 VL with E84A
B29: PTA-2358 VH5/VK3 IgG1 antibody (antibody, V domains shown)
VH: B16 VH with L11V, L20V, K38R, L70I, N77S, L81M
VL: B16 VL with L4M, E84A, T89V
B30: PTA-2358 VH2/VK3 IgG1 antibody (antibody, V domains shown)
VH: B16 VH with L11V
VL: B16 VL with L4M, E84A, T89V

biological target: antigen on NCI-H187 classic small cell lung carcinoma cells (ATCC Number: CRL-5804) recognised by PTA-2357; assay: competition flow cytometry on NCI-H187 cells against mouse PTA-2357; CHO-K1-derived

Relative IC50 (fold of chimeric PTA-2357) | Binder
1.5 | B1
> 3 | B2
1.64 | B3
1.36 | B4
> 3 | B5
> 3 | B6
> 3 | B7
> 3 | B8
1.2 | B9
2 | B10
> 3 | B11
2.43 | B12
1.57 | B13
0.82 | B14
2.06 | B15

biological target: antigen on NCI-H187 classic small cell lung carcinoma cells (ATCC Number: CRL-5804) recognised by PTA-2358; assay: competition flow cytometry on NCI-H187 cells against mouse PTA-2358; NS0-derived

Relative IC50 (fold of chimeric PTA-2358) | Binder
1.11 | B16
1.11 | B17
2.65 | B18
1.12 | B19
1.65 | B20
1.49 | B21
1.03 | B22
1.03 | B23

biological target: antigen on NCI-H187 classic small cell lung carcinoma cells (ATCC Number: CRL-5804) recognised by PTA-2357; assay: competition flow cytometry on NCI-H187 cells against mouse PTA-2357; NS0-derived

Relative IC50 (fold of chimeric PTA-2357) | Binder
1.34 | B1
1.16 | B4
1.06 | B9
1.06 | B13
1.23 | B14

biological target: antigen on NCI-H187 classic small cell lung carcinoma cells (ATCC Number: CRL-5804) recognised by PTA-2358; assay: competition flow cytometry on NCI-H187 cells against mouse PTA-2358; CHO-K1-derived

Relative IC50 (fold of chimeric PTA-2358) | Binder
1.09 | B16
1.68 | B17
2.68 | B24
2.38 | B25
> 3 | B26
1.48 | B18
2.43 | B27
1.09 | B19
1.81 | B28
1.69 | B20
> 3 | B29
1.68 | B21
> 3 | B30
1.29 | B22
1.28 | B23
